Here are results for one molecule from US20190142971A1, “FORMULATION AND DELIVERY OF MODIFIED NUCLEOSIDE, NUCLEOTIDE, AND NUCLEIC ACID COMPOSITIONS” (ModernaTX, Inc., priority 2013, published 2019).

Data set [1] concerns peripheral blood mononuclear cells (PBMC). The data set can be described thus: Example 56: PBMC IFN-alpha and TNF-alpha ELISA and protein/cytokine ratio (Tables 86, 87). The format is cell-based, human. On the procedure:
480 ng of G-CSF mRNA modified with 5-methylcytosine (5mC) and pseudouridine (pseudoU) or unmodified G-CSF mRNA was transfected with 0.4 uL of Lipofectamine 2000 into peripheral blood mononuclear cells (PBMC) from three normal blood donors (D1, D2, and D3). […] The supernatant was harvested and run by ELISA 22 hours after transfection to determine the protein expression. The expression of IFN-alpha and TNF-alpha may be a secondary effect from the transfection of the G-CSF mRNA.
As mentioned above, using PBMC as an in vitro assay system it is possible to establish a correlation between translation (in this case G-CSF protein production) and cytokine production (in this case exemplified by IFN-alpha protein production). Better protein production is correlated with lower induction of innate immune activation pathway, and the percentage modification of a chemistry can be judged favorably based on this ratio (Table 87).

For data set [2] the test system is unchanged. Format: cell-based, human. The settings on record: three human PBMC donors. On the procedure:
500 ng of G-CSF mRNA modified with 5-methylcytosine (5mC) and pseudouridine (pseudoU) or unmodified G-CSF mRNA was transfected with 0.4 uL of Lipofectamine 2000 into peripheral blood mononuclear cells (PBMC) from three normal blood donors (D1, D2, and D3). […] The supernatant was harvested 6 hours and 18 hours after transfection and run by ELISA to determine the protein expression. The expression of G-CSF, IFN-alpha, and TNF-alpha for Donor 1 is shown in Table 88, Donor 2 is shown in Table 89 and Donor 3 is shown in Table 90.

B1: G-CSF: modified mRNA encoding human G-CSF, SEQ ID NO: 4, Cap1, fully modified with 5-methylcytosine and pseudouridine; LNP-formulated in Examples 16-22 (nucleic acid)
chain: GGGAAAUAAGAGAGAAAAGAAGAGUAAGAAGAAAUAUAAGAGCCACCAUGGCCGGUCCCGCGACCCAAAGCCCCAUGAAACUUAUGGCCCUGCAGUUGCUGCUUUGGCACUCGGCCCUCUGGACAGUCCAAGAAGCGACUCCUCUCGGACCUGCCUCAUCGUUGCCGCAGUCAUUCCUUUUGAAGUGUCUGGAGCAGGUGCGAAAGAUUCAGGGCGAUGGAGCCGCACUCCAAGAGAAGCUCUGCGCGACAUACAAACUUUGCCAUCCCGAGGAGCUCGUACUGCUCGGGCACAGCUUGGGGAUUCCCUGGGCUCCUCUCUCGUCCUGUCCGUCGCAGGCUUUGCAGUUGGCAGGGUGCCUUUCCCAGCUCCACUCCGGUUUGUUCUUGUAUCAGGGACUGCUGCAAGCCCUUGAGGGAAUCUCGCCAGAAUUGGGCCCGACGCUGGACACGUUGCAGCUCGACGUGGCGGAUUUCGCAACAACCAUCUGGCAGCAGAUGGAGGAACUGGGGAUGGCACCCGCGCUGCAGCCCACGCAGGGGGCAAUGCCGGCCUUUGCGUCCGCGUUUCAGCGCAGGGCGGGUGGAGUCCUCGUAGCGAGCCACCUUCAAUCAUUUUUGGAAGUCUCGUACCGGGUGCUGAGACAUCUUGCGCAGCCGUGAAGCGCUGCCUUCUGCGGGGCUUGCCUUCUGGCCAUGCCCUUCUUCUCUCCCUUGCACCUGUACCUCUUGGUCUUUGAAUAAAGCCUGAGUAGGAAG
modifications: Cap1, 5-methylcytosine, pseudouridine
Take B1: the entries for the “protein/cytokine ratio vs natural G-CSF mRNA” value in data set [1] (IFN-alpha) and in data set [1] (TNF-alpha) were 100 fold and 27 fold, respectively. In addition, in data set [2], the “protein translation and cytokine production” value was “most protein translation (G-CSF) and the least amount of cytokine”.
